Experiment: yeast display, Sf9 membrane polyspecificity reagent, FACS + sequencing; frameworks hold sequencing errors
Procedure, shortened: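 Using colony PCR, genes from sorted yeast display clones were amplified, then sequenced on MiSeq at 2 × 250 and filtered by CDR length. The clones had been stained with 10% biotinylated, detergent-solubilized Sf9 membrane reagent for 1 hour at 4 °C and sorted by FACS into low and high (top ~1%) gates on anti-HA and streptavidin fluorescence. Polyreactivity labels come from the gate of origin.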

Row | Sequence | polyreactivity (PSR sort gate)
1 | QVQLVESGGGLVQAGGSLRLSCAASGSTFRGYDMGWYRQAPGKERELVAAITTSGGTTYYADSVKGRFTISRDNAKNTVYLQMNSLKPEDTAVYYCAARYPRAGVPRRPTAYVRYGYWGQGTQVTVSS | high polyreactivity
2 | QVQLVESGGGLVQAGGSLRLSCAASGSTFRGYVMGWYRQAPGKERELVAAISSGGRTYYADSVKGRFTISRDNAKNTVYLQMNSLKPEDTAVYYCNSNGRDVYYNWAYDYWGQGTQVTVSS | high polyreactivity
3 | QVQLVESGGGLVQAGGSLRLSCAASGSTFRHNAMGWYRQGPGKERELVATIRTSGGTTYYADSVKGRFTISRDNAKNTVYLQMNSLKPEDTAVYYCAAVSYLFLYQGYPIAYPMYYWGQGTQVTVSS | low polyreactivity
4 | QVQLVESGGGLVQAGGSLRLSCAASGSTFRINAMGWYRQAPGKERELVADINSGGNTTYADSVKGRFTISRDNAKNTVYFQMNSLKPEDTAVYYCAAAPVFDLWVFLLDYGYDYWGQGTQVTVSS | low polyreactivity
5 | QVQLVESGGGLVQAGGSLRLSCAASGSTFRINAMGWYRQAPGKERELVADINSGGNTTYADSVKGRFTISRDNAKNTVYLQMNSLKPEDTAVYYCAADPVFDLWEFLLDYGYDYWGQGTQVTVSS | low polyreactivity
6 | QVQLVESGGGLVQAGGSLRLSCAASGSTFRIYAMGLYRQAPGKERELVAAIRRSGGSTYYADSVKGRFTISRDNAKNTVYLQMNSLKPEDTAVYYCAADLYYQAPGYQDRYRHSRYEYWGQGTQVTVSS | high polyreactivity
7 | QVQLVESGGGLVQAGGSLRLSCAASGSTFRKDAMGWYRQAPGKERELVAAISSSGGDTYYADSVKGRFTISRDNAKNTVYLQMNSLKPEDTAVYYCNTKRPYRVYFRYGYWGQGTQVTVSS | high polyreactivity
8 | QVQLVESGGGLVQAGGSLRLSCAASGSTFRKNAMGWYRQAPGKERELVAAITYSGGGTYYADSVKGRFTISRDNAKNTVYLQMNSLKPEDTAVYYCAAERNKYAPYYYWGQGTQVTVSS | high polyreactivity
9 | QVQLVESGGGLVQAGGSLRLSCAASGSTFRKYAMGWYRQAPGTEREFVAAITWSTGTTYYADSVKGRFTISRDNAKNTVYLQMNSLKPEDTAVYYCAADSQPPHELYESIEHESWGQGTQVTVSS | low polyreactivity
10 | QVQLVESGGGLVQAGGSLRLSCAASGSTFRKYVMGWYRQAPGKERELDAGITSRGGSTYYADSVKGRFTISRDNAKNTVYLQMNSLKPEDSAVYYCAKRAYGTALYRGYGYWGQGTQVPVSS | low polyreactivity
11 | QVQLVESGGGLVQAGGSLRLSCAASGSTFRLNAMGWYRQAPGKERELVAAISRSTGTTHYADSVKGRFTISRDNAKNTVYLQMNSLKPEDTAVYYCATDRAKWHKNGDLGYWGQGTQVTVSS | low polyreactivity
12 | QVQLVESGGGLVQAGGSLRLSCAASGSTFRLNAMGWYRQAPGKERELVAAISWTGGSTYYADSVKGRFTISRDNAKNTVYLQMNSLKPEDTAVYYCAADWWQGTSHYWGGAYNYWGQGTQVTVSS | low polyreactivity
13 | QVQLVESGGGLVQAGGSLRLSCAASGSTFRLYAMGCYRPAPGKERELVAVISRSGGRTYADSVKGRFTISRDNAKNTVYLQMNSLKPEDTAVYYCAKARHKSPTYTHDSWGQGTQVTVSS | high polyreactivity
14 | QVQLVESGGGLVQAGGSLRLSCAASGSTFRLYAMGWYRQAPGKERELVAAISSRGGTTYYADSVKGRFTISRDNAKNTVYLQMNSLKPEDTAVYYCAAPRASQYGDDYWGHGTQVTVSS | high polyreactivity
15 | QVQLVESGGGLVQAGGSLRLSCAASGSTFRLYAMGWYRQAPGKERELVAVISRSGGRTYADSVKGRFTISRDNAKNTVYLQMNSLKPEDTAVYYCAKARHKSPTYTHDSWGQGTQVTVSS | high polyreactivity
16 | QVQLVESGGGLVQAGGSLRLSCAASGSTFRNYAMGWSRQAPGKERELVAAISGSGGRTKYADSVKGRFTISRDNAKNTVYLQMNSLKPEDTAVYYWNARFPDWALSEISHSTTYGLWGQGTLVTVSS | low polyreactivity
17 | QVQLVESGGGLVQAGGSLRLSCAASGSTFRPYAMGWYREAPGKERELVAAITSTGGSTYYADSVKGRFTISRDNAKNSVSLQMNSLKPDDTAVYYCAAPLVRYAGPYDYWGQGTQVTVSS | low polyreactivity
18 | QVQLVESGGGLVQAGGSLRLSCAASGSTFRPYAMGWYRQAPGKERELLAAISSGDTTDYADSVKGRFTISRDNAKNTVYLQMNSLKPEDNAVYYCATVFNDLTVYEYWSRFDYWGPGTQVTVSS | low polyreactivity
19 | QVQLVESGGGLVQAGGSLRLSCAASGSTFRPYAMGWYRQAPGKERELVAAITSTGGSTYYADSVKGRFTISRDNAKNTVYLQMNSLKPEDTAVYYCAAPLVRYAGPYDYWGQGTQVTVSS | low polyreactivity
20 | QVQLVESGGGLVQAGGSLRLSCAASGSTFRQYAMGWYRQAPGKERELVAAIRGRDGSTYYADSVKGRFTISRDNAKNTVYLQMNSLKPEDTAVYYCNVVARGVSPGYDYWGQGTQVTVSS | high polyreactivity
21 | QVQLVESGGGLVQAGGSLRLSCAASGSTFRQYAMGWYRQAPGKERELVAAISSGGRTNYADSVKGRFTISRDNAKNTVYLQMNSLKPEDTAVYYCASDIRRRVPVRGYYYWGQGTQVTVSS | high polyreactivity
22 | QVQLVESGGGLVQAGGSLRLSCAASGSTFRRYAMGWYRQAPGKERELVAAIRQRGTSTYYADSVKGRFTISRDNAKNTVYLQMNSLKPEDTAVYYCAAGPSLWLFNSWGQGTQVTVSS | high polyreactivity

Row | Sequence | polyreactivity (PSR sort gate)
23 | QVQLVESGGGLVQAGGSLRLSCAASGSTFRRYAMGWYRQAPGKERELVAAITSTDVNTYYADSVKGRFTISRDNAKNTVYLQMNSLKPEDTAVYYCAAVYLGYYGVSDMEYWGQGTQVTVSS | high polyreactivity
24 | QVQLVESGGGLVQAGGSLRLSCAASGSTFRRYAMGWYRQAPGKERELVAAITTRGGSTYYADSVKGRFTISRDNAKNSVYLQMNSLKPEDTAVYYCARDYSTYLRTAGDYWGQGTQVTVSS | low polyreactivity
25 | QVQLVESGGGLVQAGGSLRLSCAASGSTFRRYAMGWYRQAPGKERELVAGISKRGVSTYYADSVKGRFTISRDNAKNTVYLQMNSLKPEDTAVYYCAAEWTVSKYDYWGQGTQVTVSS | low polyreactivity
26 | QVQLVESGGGLVQAGGSLRLSCAASGSTFRRYAMGWYRQAPGKEREMVAGITYGSTYYADSVKGRFTISRDNAKNTVYLLMNSLKPEDTAVYYCAADLSYTSVHGYRSDTLMDYWGQGTQVTVSS | low polyreactivity
27 | QVQLVESGGGLVQAGGSLRLSCAASGSTFRSNAMGWYRQAPGKERELVAGISRRGGSTYYADSVTGRVTISRDNAKNTVYLQMNSLKPEDTAVDYCAASSRSFIRVYYWGQGTQVTVSS | high polyreactivity
28 | QVQLVESGGGLVQAGGSLRLSCAASGSTFRSYAMGWYRQAPGKERELVAVISKRGGSTYYADSVKGRFTISRDNAKNTVYLQMNSLKPEDTAVYYCAARPGPYWTVTFRSPKYYYWGQGTQVTVSS | high polyreactivity
29 | QVQLVESGGGLVQAGGSLRLSCAASGSTFRSYAMGWYRQAPGKERESVARISYRTGSTYYADSVKGRFTISRDNAKNTVYLQMNSLEPEDTAVYYCATRGSYVGGLYDYWGQGTQVTVSS | high polyreactivity
30 | QVQLVESGGGLVQAGGSLRLSCAASGSTFRSYAMGWYRQSPGKERELVAAISTRGGSTYYADSVKGRFTISRDNAKNTVYLQMNSLKPEDTAVYYCAVEIVWAYGPTDYYYWGQGTQVTVSS | high polyreactivity
31 | QVQLVESGGGLVQAGGSLRLSCAASGSTFRSYDMGWYRQAPGKERELVAASSSGGSTNYADSVKGRFTISRDNAKNTVYLQMNSLKPEDTAVYYCNAEYPYYWFKYDYWGQGTQVTVSS | low polyreactivity
32 | QVQLVESGGGLVQAGGSLRLSCAASGSTFRSYNMGWYRQAPGKERELVADINGTGGSTYYADSVKGRFTISRDNAKNTVYLQMNSLKPEDTAVYYCAADGYFRTVTSGWALRMGYWGQGTQVTVSS | high polyreactivity
33 | QVQLVESGGGLVQAGGSLRLSCAASGSTFRTNAMGWYRQAPGKERELVAAISGSGSRTYYADSVKGRFTISRDNAKNTVYLQMNSLKPEDTAVYYCAAVYGGVGYRRREYWGQGTQVTVSS | high polyreactivity
34 | QVQLVESGGGLVQAGGSLRLSCAASGSTFRTNAMGWYRQAPGKERELVAAITYRAGNTYYADSVKGRFTISRDNAKNTVYLQMNSLKPEDTAVYYCNAESLSFPARGRAYRYYYWGQGTQVTVSS | high polyreactivity
35 | QVQLVESGGGLVQAGGSLRLSCAASGSTFRTYAIGWYRQAPAKERELVAAISRSGGRTYYADSVKGRFTISRDNAMNTVYLQMNSLKPEDTAVYYCAVGDTYTYDYWGQGTQVTVSS | high polyreactivity
36 | QVQLVESGGGLVQAGGSLRLSCAASGSTFRTYTMGWYRQAPGKERELVAAGGGTYYADSVKGRFTISRDNAKNTVYLQMNSLKPEDTAVYYCAAGLPIHGLRGYEYDYWGQGTQVTVSS | low polyreactivity
37 | QVQLVESGGGLVQAGGSLRLSCAASGSTFRVNAMAWYRHAPGKERELVADITNGGSTYYADSVKGRFTISRDNAKNTVYLQMNSLKPEDTAVYYCNARPSYLRFKWYSYDYWGQGTQVTVSS | high polyreactivity
38 | QVQLVESGGGLVQAGGSLRLSCAASGSTFRVNAMGWYRQAPGKERELVAAIRKSGGSTYADSVKGRFTISRDNAKNTVYLQMNSLKPEDTAVYYCNADATAWLGWDDNYWGQGSQVTVSS | low polyreactivity
39 | QVQLVESGGGLVQAGGSLRLSCAASGSTFRVNAMGWYRQAPGKERELVAAIRSSGGTTYYADSVQGRFTISRDNAKNTVYLQMNSLKPEDTAVYYCAAEGYRSWRGLRSRYYYWGQGTQVTVSS | high polyreactivity
40 | QVQLVESGGGLVQAGGSLRLSCAASGSTFRVYAMGWYRQAPGKERELVATISWGGGRTYYADSVKGRFTISRDNAKNTVYLQMNSLKPEDTAVYYCAADQRWTTDQPTAGDYWGQGTQVTVSS | low polyreactivity
41 | QVQLVESGGGLVQAGGSLRLSCAASGSTFRVYGMGWYRQAPGKERELDAAIRWIGGRTYYADSVKGRFTISRDNAKNTVYLQMNSLKAEDTAVYYCNARAGPVRFDYWGQGTQVTVSS | low polyreactivity
42 | QVQLVESGGGLVQAGGSLRLSCAASGSTFRWNAMGWYRQAPGKERELVAAISGNGGSTYYADSVKGRFTISRDNAKNTVYLHMNTLKPEYNAVYYCAARGYFCSSYKYDYRGQGTQVTVSS | high polyreactivity
43 | QVQLVESGGGLVQAGGSLRLSCAASGSTFRWNAMGWYRQAPGKERELVASITSGGSTNYADSVKGRFTISRDNAKNTVYLQMNSLKPEDTAVYYCNADVRRSTYYVWLYDYWGQGTQVTVSS | low polyreactivity

Reference: the nanobody polyreactivity screen of Harvey et al. (2022)
